Data as given in patent US20260176701A1 (BRIGHAM AND WOMEN S HOSPITAL, published 2026).

T1: recombinant human ORF1p (LINE-1 open reading frame 1 protein, L1RP) (human, UniProt Q9UN81 1-338)
T1 construct: Expressed in E. coli, tag cleaved, monodisperse homotrimer; Immobilized on the CM5 chip in SPR; also called trimeric ORF1p
T1 sequence: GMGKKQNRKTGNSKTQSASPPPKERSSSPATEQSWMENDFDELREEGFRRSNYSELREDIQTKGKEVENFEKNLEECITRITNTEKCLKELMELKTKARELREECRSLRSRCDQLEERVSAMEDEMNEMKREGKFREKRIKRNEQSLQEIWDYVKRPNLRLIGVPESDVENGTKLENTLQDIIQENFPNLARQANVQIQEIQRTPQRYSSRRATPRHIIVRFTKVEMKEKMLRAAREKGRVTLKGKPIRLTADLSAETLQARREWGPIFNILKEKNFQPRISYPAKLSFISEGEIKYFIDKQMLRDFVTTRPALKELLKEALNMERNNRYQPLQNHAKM


What follows are binders tested against T1, recombinant human ORF1p (LINE-1 open …) (assay: Simoa sandwich, recombinant ORF1p at 40 pg/mL in diluent buffer, signal/background heat map; capture on the x axis, detector on the y axis).
Protocol: ORF1p Simoa assays. Simoa assays were performed on an HD-X Analyzer (Quanterix Corp.), with all assay reagents and consumables loaded onto the instrument according to the manufacturer's instructions. 250,000 capture beads and 250,000 helper (non-conjugated) beads were used in each Simoa assay. A three-step assay configuration was used for the first- and second-generation assays, consisting of a 15-minute target capture step (incubation of capture beads with 100 μL sample), 5-minute incubation with detector reagent (0.3 μg/mL for both first- and second-generation assays), and 5-minute incubation with streptavidin-β-galactosidase (150 pM for first-generation assay; 300 pM for second-generation assays). The beads were washed with System Wash Buffer 1 (Quanterix Corp.) after each assay step. Upon the final wash cycle, the beads were loaded together with the fluorogenic enzyme substrate resorufin β-D-galactopyranoside into a 216,000-microwell array, which was subsequently sealed with oil. Automated imaging and counting of “on” and “off” wells and calculation of average enzyme per bead (AEB) were performed by the instrument. Calibration curves were fit using a 4PL fit with a 1/y² weighting factor, and the limit of detection (LOD) was determined as three standard deviations above the blank.
Signal/background was also determined for a number of the pairs by Simoa using recombinant ORF1p protein in diluent buffer; the results are shown in FIG. 15. When the rabbit monoclonal antibodies were used as capture and detector, the background was high. The best combinations were the rabbit monoclonal antibodies as capture/Ab6 detector; Nb5-5 capture/rabbit monoclonal antibodies detector; and 4H1 capture/rabbit monoclonal antibody detector pairs.

Row | binding result | Binder
1 | binds | 61A11 (antibody, V domains shown, Rabbit monoclonal antibody; also called 61A11-1) VH: QSVEESGGRLVTPGTPLTLTCTVSGIDLSSYVMGWVRQAPGKGLDWIGMIDTHDDTYFAPWARGRFTISRTSSTTVDLKVASTTTEDTATYFCAGNLALWGRGTLVTVSS VL: AQVLTQTPSPVSVAVGGTVTISCQSSQSVSSDNWLGWYQQKPGQPPKLLIYRASKLASGVSSRFKGSGSGTQFILTISDLECDDAATYYCAGGYSGSIIAFGGGTEVVVK
2 | binds | 33A8 (antibody, V domains shown, Rabbit monoclonal antibody; also called 33A8-1) VH: QSLEESGGGLVQPEGSLTLTCKASGFSFINNNHICWVRQAPGKGLEWIACIYAGSTGYTYYANWAKGRFTISKTSSTTVTLQMTSLTAADTATYFCARVPYAGYVNYGYTFFNLWGPGTLVTVSS VL: AAVLTQTPSPVSAPVGGTVTISCQSSQSVYRTNDLAWYQQKPGQPPKLLIYWASKLAAGVPSRFKGSGSGTQFTLTISGVQCDDAATYYCLGGYYDDGDLNAFGGGTEVVVN
3 | binds | 36D12 (antibody, V domains shown, Rabbit monoclonal antibody; also called 36D12-1) VH: QSVEESGGRLVTPGTPLTLTCTVSGFSLSTYAMGWFRQAPGKGLEWIGTIWSGAFTDYANWVNGRFTISKTSTTVDLKITSPTTEDTATYFCAREADSDLYTYFKLWGPGTLVTVSS VL: AYDMTQTPASVEVAVGGTVTLKCQASESIEIYLAWYQQKPGQPPKLLVYDASTLASGVPSRFKGSGSGTQFTLTISGVECADAATYYCQQGYRSDNVHNVFGGGTEVVVK
4 | binds | 42D10 (antibody, V domains shown, Rabbit monoclonal antibody; also called 42D10-1) VH: QSVEESGGRLVTPGTPLTLTCTVSGFSLSSYAMTWVRQAPGKGLEWIGYIYAGGIADYANWAKGRFTISKTSTTVDLTITSPTTEDTATYFCAREGDSDDYVYLSLWGPGTLVTVSS VL: ALVMTQTPSSVSAAVGGTVTINCQASQSIVGYLAWYQQKPGQPPKLLIYRASTLASGVSSRFKGSGSGTEFTLTISGVQCADAATYYCQQGYINSNIDNTFGGGTEVVVK
5 | binds | 34H7 (antibody, V domains shown, Rabbit monoclonal antibody; also called 34H7-1; 37H7) VH: QSLEESGGDLVKPGASLTLTCTASGFSLNNYVMYWVRQAPGKGLESIACIYTGSGTTYYATWAKGRFTISKTSSTTVTLQMTSLTAADTATYFCARRTYTSDSYAGSFNLWGPGTLVTVSS VL: AYDMTQTPASVSEPVGGTVTIKCQASQSIGSNLAWYQQKPGQRPKLLIYAASYLASGAPSRFKGSGSGTEFTLTISGVQCDDAATYYCQQGWSSSDVDSTFGGGTEVVVK
6 | binds | 34C5 (antibody, V domains shown, Rabbit monoclonal antibody; also called 34C5-1) VH: QSVEESGGRLVKPDESLTLTCTVSGFSLSAYEMGWVRQAPGKGLEWIAAISTGDTPYYATWTKGRFTISRASSTTVDLKMTSPTTEDTATYFCARYGHNYEYVFDLWGQGTLVTVSS VL: AYDMTQTPASVSAAVGGTVTINCQASQSIGSYLSWYQQKPGQPPKLLIYSASTLASGVPSRFSGSGYGTEFTLTIGGVQCDDAAAYYCQQGESIGSVHNVFGGGTEVVVA

Each binder was assayed against T1, recombinant human ORF1p (LINE-1 open …) (assay: SPR (Biacore 8K), ORF1p immobilized on CM5, single-cycle kinetics, 1:1 fit).
Protocol: Surface plasmon resonance (SPR) assays. Binding kinetics (kₐ, kd, and KD) of antibody and nanobody constructs for ORF1p were obtained on a Biacore 8K instrument (Cytiva). Recombinant ORF1p was immobilized on a Series S CM5 sensor chip at 1.5 μg/ml using EDC/NHS coupling chemistry according to the manufacturer's guidelines. Nanobodies and antibodies were prepared as analytes and run in buffer containing 20 mM HEPES pH 7.4, 150 mM NaCl, and 0.05% Tween-20. Analytes were injected at 30 μl/min in single-cycle kinetics experiments at concentrations of 0.1, 0.3, 1, 3.3, and 10 nM, with association times of 120-180 sec, and a dissociation time of 1200-7200 sec, depending on observed off-rate. Residual bound protein was removed between experiments using 10 mM glycine-HCl pH 3.0. Data were analyzed using Biacore software, fitting a Langmuir 1:1 binding model to sensorgrams to calculate kinetic parameters.

Row | Kd [nM] | Binder
7 | 0.083 | anti-ORF1 Nb dimer 4 Nb5-Nb1 (MT994) (bispecific antibody, Heterodimeric tandem nanobody, short linker; also called Nb 5-1; Nb5-1 pMT994) QVQLVESGGDLVQAGGSLRLSCAVSGGTSSNYGMGWFRQAPGKEREFVSSISWSGSRTLYSDSVKGRFTISRDNAKNTVDLQMNSLKPEDTAVYYCTAVREYRDYPQRDNFDYWGQGTQVTVSGGGGSGGGGSGGGGSGGGGSMADVQLVESGGGLVQAGESLRLSCAASGRTLSSLNMAWFRQVPGKERDFVSLISRSGSTDYVHSVRGRFTISRDNAKNTVYLEMNSLKPEDTAVYYCAADDNYNGRYPFRDEYEYWGQGTQVTVSHHHHHH
8 | 0.48 | anti-ORF1 Nanobody 2 (Nb2) (VHH, Llama nanobody) VHH: DVQLVESGGGLVQAGGSLRLSCAASGRTDDIYTMGWFRQGPGKEREFVAVISWSITRRSSITHYADSVKGRFTISGENAENTVYLQMNTLKPEDTAVYYCAAKTGYSGSMSSYQDYDSWGQGTQVTVSH
9 | 0.19 | anti-ORF1 Nanobody 10 (Nb10) (VHH, Llama nanobody) VHH: QVQLVESGGGLVQAGESLRLSCQVSGRTFSISGAGWFRQAPGKEREFVAAITWTGGYPYYATSVKGRFTIARDDPENRVYLSMNSLKPEDTAVYYCATRRAGSLDFDYAQQTRYDNWGQGTQVTVSH
10 | 0.0098 | anti-ORF1 Nb dimer 6 Nb5-Nb5 long linker (MT997) (bispecific antibody, Homodimeric tandem nanobody, long linker of 56 residues; also called Nb 5-5 long; Nb5-5LL) QVQLVESGGDLVQAGGSLRLSCAVSGGTSSNYGMGWFRQAPGKEREFVSSISWSGSRTLYSDSVKGRFTISRDNAKNTVDLQMNSLKPEDTAVYYCTAVREYRDYPQRDNFDYWGQGTQVTVSGGGGSGGGGSGGGGSGGGGSEAAAKEAAAKEAAAKSGGGGSGGGGSGGGGSGGGGSMAQVQLVESGGDLVQAGGSLRLSCAVSGGTSSNYGMGWFRQAPGKEREFVSSISWSGSRTLYSDSVKGRFTISRDNAKNTVDLQMNSLKPEDTAVYYCTAVREYRDYPQRDNFDYWGQGTQVTVSHHHHHH
11 | 0.11 | anti-ORF1 Nanobody 5 (Nb5) (VHH, Llama nanobody; also called Clone 5; C5) VHH: QVQLVESGGDLVQAGGSLRLSCAVSGGTSSNYGMGWFRQAPGKEREFVSSISWSGSRTLYSDSVKGRFTISRDNAKNTVDLQMNSLKPEDTAVYYCTAVREYRDYPQRDNFDYWGQGTQVTVSH
12 | 0.24 | anti-ORF1 Nanobody 21 (Nb21) (VHH, Llama nanobody) VHH: QVQLAESGGGLVQAGGSLRLSCAASGRTSTIYIMGWFRQAPGKDREFVAGITYTGGYPYYADSVQGRFTLSNDNADHTAYLQMNNLKPEDSAVYYCAARSRGGITTHERDFGSWGQGTQVTVSH
13 | 0.19 | anti-ORF1 Nanobody 9 (Nb9) (VHH, Llama nanobody) VHH: QVHLVESGGKLVQAGESLKLSCEVSGRTFSISGAGWFRQAPGKEREFVAAITWTGGYPYYDASVKGRFTISREDPDNTVYLSMNSLKPEDTAVYYCATRRAGDLDFSYAQQGRYDNWGQGTQVTVSH
14 | 0.07 | anti-ORF1 Nb dimer 3 Nb5-Nb5 (MT993) (bispecific antibody, Homodimeric tandem nanobody, short linker; also called Nb 5-5; Nb5-5) QVQLVESGGDLVQAGGSLRLSCAVSGGTSSNYGMGWFRQAPGKEREFVSSISWSGSRTLYSDSVKGRFTISRDNAKNTVDLQMNSLKPEDTAVYYCTAVREYRDYPQRDNFDYWGQGTQVTVSGGGGSGGGGSGGGGSGGGGSMAQVQLVESGGDLVQAGGSLRLSCAVSGGTSSNYGMGWFRQAPGKEREFVSSISWSGSRTLYSDSVKGRFTISRDNAKNTVDLQMNSLKPEDTAVYYCTAVREYRDYPQRDNFDYWGQGTQVTVSHHHHHH
15 | 0.036 | anti-ORF1 Nb dimer 5 Nb5-Nb2 (MT995) (bispecific antibody, Heterodimeric tandem nanobody, short linker; also called Nb 5-2; Nb5-2 pMT995) QVQLVESGGDLVQAGGSLRLSCAVSGGTSSNYGMGWFRQAPGKEREFVSSISWSGSRTLYSDSVKGRFTISRDNAKNTVDLQMNSLKPEDTAVYYCTAVREYRDYPQRDNFDYWGQGTQVTVSGGGGSGGGGSGGGGSGGGGSMADVQLVESGGGLVQAGGSLRLSCAASGRTDDIYTMGWFRQGPGKEREFVAVISWSITRRSSITHYADSVKGRFTISGENAENTVYLQMNTLKPEDTAVYYCAAKTGYSGSMSSYQDYDSWGQGTQVTVSHHHHHH
16 | 0.027 | anti-ORF1 Nb trimer Nb5-Nb5-Nb5 (MT996) (bispecific antibody, Homotrimeric tandem nanobody; also called Nb 5-5-5) QVQLVESGGDLVQAGGSLRLSCAVSGGTSSNYGMGWFRQAPGKEREFVSSISWSGSRTLYSDSVKGRFTISRDNAKNTVDLQMNSLKPEDTAVYYCTAVREYRDYPQRDNFDYWGQGTQVTVSGGGGSGGGGSGGGGSGGGGSMAQVQLVESGGDLVQAGGSLRLSCAVSGGTSSNYGMGWFRQAPGKEREFVSSISWSGSRTLYSDSVKGRFTISRDNAKNTVDLQMNSLKPEDTAVYYCTAVREYRDYPQRDNFDYWGQGTQVTVSGGGGSGGGGSGGGGSGGGGSMAQVQLVESGGDLVQAGGSLRLSCAVSGGTSSNYGMGWFRQAPGKEREFVSSISWSGSRTLYSDSVKGRFTISRDNAKNTVDLQMNSLKPEDTAVYYCTAVREYRDYPQRDNFDYWGQGTQVTVSHHHHHH
17 | 0.0092 | anti-ORF1 Nb dimer 2 Nb2-Nb2 (MT992) (VHH, Homodimeric tandem nanobody, short (GGGGS)x4 linker; also called Nb 2-2; Nb2-2 pMT992) DVQLVESGGGLVQAGGSLRLSCAASGRTDDIYTMGWFRQGPGKEREFVAVISWSITRRSSITHYADSVKGRFTISGENAENTVYLQMNTLKPEDTAVYYCAAKTGYSGSMSSYQDYDSWGQGTQVTVSGGGGSGGGGSGGGGSGGGGSMADVQLVESGGGLVQAGGSLRLSCAASGRTDDIYTMGWFRQGPGKEREFVAVISWSITRRSSITHYADSVKGRFTISGENAENTVYLQMNTLKPEDTAVYYCAAKTGYSGSMSSYQDYDSWGQGTQVTVSHHHHHH
